Tested on: Escherichia coli TOP10
Assay: shrunken log2 fold change of peptide-encoding DNA abundance (4.5 h post-induction vs induction); higher = less antimicrobial activity (less host growth inhibition)
Details: time post-induction: 4.5 h; library: site-saturation at positions 5, 18, 19, 20
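Further: peptides expressed intracellularly from a pBAD plasmid library in pooled LB shake-flask culture, induced with 0.3% L-arabinose, DNA abundance read by NGS, three biological replicates, DESeq2 with apeglm shrinkage.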

Sequence	shrunken log2 fold change
RRIRKRPPRLPRPRPRPRMFPRP	0.112
RRIRHRPPRLPRPRPRPKECPRP	-0.212
RRIRIRPPRLPRPRPRPGQEPRP	-0.00674
RRIRTRPPRLPRPRPRPCDNPRP	-0.267
RRIRNRPPRLPRPRPRPFQIPRP	-0.121
RRIRNRPPRLPRPRPRPSGGPRP	0.0638
RRIRTRPPRLPRPRPRPPCWPRP	0.171
RRIRKRPPRLPRPRPRPQMCPRP	-0.0359
RRIRSRPPRLPRPRPRPHEIPRP	-0.346
RRIRQRPPRLPRPRPRPWWFPRP	-0.0566
RRIRLRPPRLPRPRPRPHQLPRP	-0.25
RRIRIRPPRLPRPRPRPEIYPRP	-4.67e-05
RRIRRRPPRLPRPRPRPIQVPRP	-0.0268
RRIRCRPPRLPRPRPRPHSKPRP	-0.438
RRIRYRPPRLPRPRPRPAFHPRP	-0.518
RRIRYRPPRLPRPRPRPWVEPRP	0.0344
RRIRPRPPRLPRPRPRPHHQPRP	-0.399
RRIRCRPPRLPRPRPRPHWTPRP	-0.226
RRIRFRPPRLPRPRPRPHCGPRP	-0.308
RRIRNRPPRLPRPRPRPICEPRP	0.0602

Sequence	shrunken log2 fold change
RRIRERPPRLPRPRPRPAYGPRP	-0.108
RRIRCRPPRLPRPRPRPLMWPRP	-0.185
RRIRNRPPRLPRPRPRPPELPRP	0.142
RRIRERPPRLPRPRPRPCQSPRP	-0.127
RRIRPRPPRLPRPRPRPCNCPRP	-0.107
RRIRIRPPRLPRPRPRPIWGPRP	-0.0934
RRIRFRPPRLPRPRPRPPCIPRP	-0.0411
RRIRARPPRLPRPRPRPIWKPRP	-0.0642
RRIRIRPPRLPRPRPRPYNWPRP	-0.577
RRIRHRPPRLPRPRPRPKTTPRP	-0.052
RRIRMRPPRLPRPRPRPARGPRP	1.1
RRIRTRPPRLPRPRPRPFPIPRP	-1.16
RRIRTRPPRLPRPRPRPDWTPRP	-0.179
RRIRDRPPRLPRPRPRPICSPRP	0.0206
RRIRTRPPRLPRPRPRPLTVPRP	-0.267
RRIRKRPPRLPRPRPRPKELPRP	0.566
RRIRDRPPRLPRPRPRPEEKPRP	0.766
RRIRARPPRLPRPRPRPIRVPRP	0.125
RRIRSRPPRLPRPRPRPMNQPRP	-0.0276
RRIRARPPRLPRPRPRPFDFPRP	0.00925

Sequence	shrunken log2 fold change
RRIRGRPPRLPRPRPRPICTPRP	1.08
RRIRKRPPRLPRPRPRPHVNPRP	0.0388
RRIRKRPPRLPRPRPRPFVGPRP	-0.0257
RRIRERPPRLPRPRPRPNCNPRP	-0.848
RRIRHRPPRLPRPRPRPSYCPRP	0.00287
RRIRERPPRLPRPRPRPDKGPRP	-0.0116
RRIRQRPPRLPRPRPRPPQIPRP	0.238
RRIRWRPPRLPRPRPRPGARPRP	0.659
RRIRMRPPRLPRPRPRPFARPRP	0.412
RRIRFRPPRLPRPRPRPSFTPRP	0.587
RRIRERPPRLPRPRPRPFRCPRP	0.00668
RRIRRRPPRLPRPRPRPDHPPRP	0.0778
RRIRFRPPRLPRPRPRPMMQPRP	-0.297
RRIRNRPPRLPRPRPRPNSVPRP	-0.0503
RRIRGRPPRLPRPRPRPQERPRP	0.595
RRIRNRPPRLPRPRPRPQTMPRP	-0.238
RRIRARPPRLPRPRPRPYVNPRP	-0.235
RRIRLRPPRLPRPRPRPQCMPRP	0.0865
RRIRRRPPRLPRPRPRPHCPPRP	0.0475
RRIRSRPPRLPRPRPRPIQWPRP	0.268
